{
  "source": "patent US7364741B1",
  "about": "“Peptides of human Papilloma virus for use in human T cell response inducing compositions” (priority 1992, dated 2008)",
  "key": {"[1]": {"tested_on": "MLDLQPETT-sensitized T2 cells", "test": "In vitro induction of primary CTL response and cytotoxicity assay on peptide-sensitized T2 cells", "assay_type": "cell-based, human", "settings": "PBL of HLA-A2.1 donor stimulated with 80 μg/ml peptide; cytotoxicity assay on day 49; background: T2 with irrelevant peptide ATELQTTIH", "method": "The expression of HLA-A2.1 on 174CEM.T2 cells (T2) is increased by incubating T2 cells in medium containing relevant peptide. T2 cells will present the relevant peptide bound to HLA-A2.1 in high amount and therefore are good antigen presenting cells (APC). In the response inducing method described below the T2 cell line is used as APC and post-Ficoll mononuclear cells are used as responder cells.\nT2 cells in a concentration of 2×10^6 cells per ml were incubated for 13 h at 37° C. in a T 25 flask (Becton Dickinson, Falcon, Plymouth Engeland cat.nr. 3013) in serum-free IMDM (=Iscoves Modified Dulbecco's Medium: Biochrom KG, Seromed Berlin, Germany, cat.nr. F0465) with glutamine (2 mM, ICN Biochemicals Inc., Costa Meisa, USA, cat.nr. 15-801-55), antibiotics (100 IU/ml penicilline (Brocades Pharma, Leiderdorp, The Netherlands, 100 μg/ml kanamycine (Sigma, St. Louis, USA, K-0245)) and the selected peptide […] (=JWK3; SEQ ID NO:15) in a concentration of 80 μg/ml.\nThese incubated T2 cells were spun down and subsequently treated in a density of 20×10^6 cells/ml with Mitomycine C (50 μg/ml) in serum-free RPMI (Gibco Paislan, Scotland, cat.nr. 041-02409) medium for 1 h at 37° C. Hereafter the T2 cells were washed three times in RPMI. […]"}, "HLA-A2.1": {"molecular_target": "T1, HLA-A2.1 (Homo sapiens, UniProt P04439, D140Y/D185E/D98H/E176V/E277Q/G131W/G231S/I119V/I121R/I166T/I218V/L300P/L318F/N151K/N90K/P208A/P217A/Q86G/Q94H/R138H/R169H/T345S)", "T1 construct": "endogenous in cells; host or cells: 174CEM.T2", "assay_type": "cell-based", "settings": "HPV16 peptides, 200 μg/ml peptide, 16 hours, 174CEM.T2 cells", "method": "Of all peptides a dilution of 1 mg/ml in 0.9% NaCl was made.\n174CEM.T2 cells were cultured in Iscovel's modified Dulbecco's medium (Biochrom KG Seromed Berlin, Germany: F0465) supplemented with 100 IU/ml penicillin (Biocades Pharma, Leiderdorp, The Netherlands), 100 μg/ml kanamycin (Sigma St. Louis, USA:K-0254), 2 mM glutamine (ICN Biomedicals Inc. Costa Mesa, Calif., USA:15-801-55) and 10% fetal calf serum (FCS, Hyclone Laboratories Inc. Logan, Utah, USA:A-1115-L). Cells were cultured at a density of 2.5×10^5/ml during 3 days at 37° C., 5% CO2 in humified air.\n174CEM.T2 cells were washed twice in culture medium without FCS and put in serum-free culture medium to a density of 2×10^6 cells/ml. Of this suspension 40 μl was put into a V bottomed 96 well plate (Greiner GmbH, Frickenhausen, Germany: 651101) together with 10 μl of the individual peptide dilutions (of 1 mg/ml). The end concentration is 200 μg/ml peptide with 8×10^4 174CEM.T2 cells. This solution was gently agitated for 3 minutes after which an incubation time of 16 hours at 37° C., 5% CO2 in humified air took place. Then cells were washed once with 100 μl 0.9% NaCl, 0.5% bovine serum albumin (Sigma St. Louis, USA: A-7409), 0.02% NaN3 (Merck Darmstadt, Germany:822335). After a centrifuge round of 1200 rpm the pellet was resuspended in 50 μl of saturating amounts of HLA-A2.1 specific mouse monoclonal antibody BB7.2 for 30 minutes at 4° C. Then cells were washed twice and incubated for 30 minutes with F(ab)2 fragments of goat anti-mouse IgG that had been conjugated with […] (Tago Inc Burlingame, Calif., USA: 4350) in a dilution of 1:40 and a total volume of 25 μl.\nAfter the last incubation, cells were washed twice and fluorescence was measured at 488 nanometer on a FACScan flow-cytometer (Becton Dickinson, Franklin Lakes, N.J., USA).\nThe 174CEM.T2 cell line expresses “empty” and unstable HLA-A2.1 molecules that can be stabilized when a peptide is binding to the peptide presenting groove of these molecules. […] This leads to an increase in cell surface expression of the HLA-A2.1 molecule.\nWith background fluorescence level (without adding peptides) set on a Fluorescence Index level of 0, binding of a peptide was regarded positive when the level of fluorescence was ≧0.5."}},
  "data": [
    {"sequence": "MLDLQPETT [HPV16 peptide 13, residues 12-20 of HPV16 protein E7]", "values": [
      {"measurement": "specificity of killing by peptide-induced bulk CTL culture", "setting": "[1]", "result": "seemed to be specific for killing MLDLQPETT (SEQ ID NO:15)-sensitized T2 cells"},
      {"measurement": "MF (mean HLA-A2.1 fluorescence)", "setting": "HLA-A2.1", "result": 217.6},
      {"measurement": "FI (Fluorescence Index)", "setting": "HLA-A2.1; background set on 0, binding positive when ≧0.5", "result": 2.3}
    ]}
  ]
}
